In publication PMC12462528, “Molecular basis of ParA ATPase activation by the CTPase ParB during bacterial chromosome segregation” (Nature Communications, 2025):

Experiments:
[1] = molecular target: the molecule itself; test: HDX-MS; 50 µM ParA or ParA-D60A with 1 mM ATP, with or without 1 mM ParB_(1-20) and/or 1 mg/mL salmon sperm DNA; 25 °C (Datasets 1 and 2)
ParA (wild type) = molecular target: T1, ParA (wild type) (Myxococcus xanthus DK1622, UniProt Q1CVJ3 1-283); test: as above; settings: both partners purified
T1 construct: ParA of Myxococcus xanthus DK1622, translation product of ORF MXAN_7477; No tag cleavage step is described; also called His6-ParA; wild-type ParA; source: E. coli Rosetta(DE3)pLysS, purified (HisTrap HP, HiTrap Q HP)
T1 sequence (looked up): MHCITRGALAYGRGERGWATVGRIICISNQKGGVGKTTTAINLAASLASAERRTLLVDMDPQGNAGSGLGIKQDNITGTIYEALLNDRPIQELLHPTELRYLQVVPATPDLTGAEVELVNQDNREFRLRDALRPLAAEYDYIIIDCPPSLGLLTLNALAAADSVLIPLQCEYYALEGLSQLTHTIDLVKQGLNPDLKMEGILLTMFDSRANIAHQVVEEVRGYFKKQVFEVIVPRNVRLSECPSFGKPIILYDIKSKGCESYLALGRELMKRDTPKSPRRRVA

His6-ParA_(21-274)-D60A = molecular target: T2, His6-ParA_(21-274)-D60A (Myxococcus xanthus DK1622, UniProt Q1CVJ3 21-274, D60A); test: NMR titration; 2H/13C/15N-labelled ParA_(21-274)-D60A (300 µM) titrated with unlabelled ParB_(1-20) to 1:5.8; TROSY 1H-15N HSQC, 298 K, 50 mM HEPES pH 6.8, 150 mM KCl, 5 mM MgSO4, 1 mM DTT, 1 mM ATP; settings: both partners purified
T2 construct: For NMR the protein was 2H/13C/15N-labelled; source: E. coli Rosetta(DE3)pLysS, purified (as His6-ParA)
T2 sequence (looked up): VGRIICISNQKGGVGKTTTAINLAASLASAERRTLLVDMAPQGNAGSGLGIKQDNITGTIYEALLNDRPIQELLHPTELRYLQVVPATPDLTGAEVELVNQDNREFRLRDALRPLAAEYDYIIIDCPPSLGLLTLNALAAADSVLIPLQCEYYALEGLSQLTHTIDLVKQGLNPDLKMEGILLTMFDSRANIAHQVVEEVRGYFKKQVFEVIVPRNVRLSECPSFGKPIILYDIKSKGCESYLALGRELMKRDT

Binder | binding result [1] | binding result (ParA (wild type)) | binding result (His6-ParA_(21-274)-D60A)
ParA-D60A (natural protein, Myxococcus xanthus DK1622, UniProt Q1CVJ3 1-283, looked up, ParA of Myxococcus xanthus DK1622 lacking the catalytic aspartic acid D60; also called ATPase-deficient ParA variant; source: E. coli Rosetta(DE3)pLysS, purified (as His6-ParA)) MHCITRGALAYGRGERGWATVGRIICISNQKGGVGKTTTAINLAASLASAERRTLLVDMAPQGNAGSGLGIKQDNITGTIYEALLNDRPIQELLHPTELRYLQVVPATPDLTGAEVELVNQDNREFRLRDALRPLAAEYDYIIIDCPPSLGLLTLNALAAADSVLIPLQCEYYALEGLSQLTHTIDLVKQGLNPDLKMEGILLTMFDSRANIAHQVVEEVRGYFKKQVFEVIVPRNVRLSECPSFGKPIILYDIKSKGCESYLALGRELMKRDTPKSPRRRVA | binds |  | 
MVKADMQKRALGRGLSALIP (peptide, UniProt Q1CVJ4 1-20, looked up, also called N-terminal peptide of ParB; source: synthetic peptide) [ParB_(1-20) peptide] |  | binds | binds
